Results taken from publication PMC2636851.

What was measured:
[1] = target: T1, Mcm10-ID wild type (Xenopus laevis, UniProt Q5EAW4 230-427); assay: fluorescence anisotropy
T1 sequence: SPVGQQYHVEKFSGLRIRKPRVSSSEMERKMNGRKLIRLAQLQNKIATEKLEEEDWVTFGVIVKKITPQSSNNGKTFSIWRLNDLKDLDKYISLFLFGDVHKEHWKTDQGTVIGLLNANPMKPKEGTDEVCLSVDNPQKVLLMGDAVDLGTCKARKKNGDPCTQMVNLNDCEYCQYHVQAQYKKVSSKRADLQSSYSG

[2] = target: T2, Mcm10-ID K412E/K413E (Xenopus laevis, UniProt Q5EAW4 230-427, K412E;K413E); assay: fluorescence anisotropy
T2 sequence: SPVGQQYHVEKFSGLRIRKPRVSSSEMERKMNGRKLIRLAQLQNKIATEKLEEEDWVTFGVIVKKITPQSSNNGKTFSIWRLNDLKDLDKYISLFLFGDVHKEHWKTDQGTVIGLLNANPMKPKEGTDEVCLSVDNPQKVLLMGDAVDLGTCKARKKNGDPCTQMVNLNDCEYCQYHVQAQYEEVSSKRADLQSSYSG

[3] = target: T3, Mcm10-ID K417E/R418E (Xenopus laevis, UniProt Q5EAW4 230-427, K417E;R418E); assay: fluorescence anisotropy
T3 sequence: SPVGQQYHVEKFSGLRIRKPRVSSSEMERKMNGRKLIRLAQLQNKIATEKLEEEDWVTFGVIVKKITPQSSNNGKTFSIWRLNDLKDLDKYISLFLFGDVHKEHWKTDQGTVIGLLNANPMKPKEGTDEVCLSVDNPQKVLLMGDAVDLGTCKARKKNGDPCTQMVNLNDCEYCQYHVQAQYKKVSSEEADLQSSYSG

[4] = target: T4, Mcm10-ID K293A (Xenopus laevis, UniProt Q5EAW4 230-427, K293A); assay: fluorescence anisotropy
T4 sequence: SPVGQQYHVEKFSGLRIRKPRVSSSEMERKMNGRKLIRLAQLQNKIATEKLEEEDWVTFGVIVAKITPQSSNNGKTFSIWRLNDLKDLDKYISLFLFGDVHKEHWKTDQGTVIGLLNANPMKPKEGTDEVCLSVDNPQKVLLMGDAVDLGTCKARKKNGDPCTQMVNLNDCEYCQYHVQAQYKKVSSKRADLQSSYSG

[5] = target: T5, Mcm10-ID F326A (Xenopus laevis, UniProt Q5EAW4 230-427, F326A); assay: fluorescence anisotropy
T5 sequence: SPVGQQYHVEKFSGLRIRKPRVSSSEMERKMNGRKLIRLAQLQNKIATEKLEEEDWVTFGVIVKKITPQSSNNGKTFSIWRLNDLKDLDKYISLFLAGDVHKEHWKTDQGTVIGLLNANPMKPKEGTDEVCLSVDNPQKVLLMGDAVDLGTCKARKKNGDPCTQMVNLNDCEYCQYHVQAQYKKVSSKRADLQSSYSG

[6] = target: T6, Mcm10-ID K385E/K386E (Xenopus laevis, UniProt Q5EAW4 230-427, K385E;K386E); assay: fluorescence anisotropy
T6 sequence: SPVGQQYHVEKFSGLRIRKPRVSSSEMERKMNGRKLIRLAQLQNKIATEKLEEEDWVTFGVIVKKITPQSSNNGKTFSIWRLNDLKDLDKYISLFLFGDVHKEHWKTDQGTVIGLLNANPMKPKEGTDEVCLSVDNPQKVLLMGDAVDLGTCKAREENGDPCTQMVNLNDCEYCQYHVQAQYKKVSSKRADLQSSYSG

[7] = target: T1, Mcm10-ID wild type; assay: NMR

ATGGTAGGCA (ssDNA) [10mer from 5' end of 25mer]
binding result [1]: binds

ATGGTAGGCAACCATGTAGTAGTCA (ssDNA) [25mer ssDNA]
binding result [2]: binds | binding result [3]: binds | binding signal [4]: 5 fold reduction in affinity vs wild type | binding result [5]: binds | binding signal [6]: 10 fold reduction in affinity vs wild type

GGCGCATTGTCGCAA (ssDNA) [15mer ssDNA (NMR)]
binding result [7]: binds
